Measurements as given in patent publication US20240124607A1 (Merck Sharp & Dohme, published 2024).
One block for each binder: values may come before it.

Columns and labels:
[1] = target: T1, human CD16A (FcγRIIIA) V158 (human, UniProt P08637 17-208, limits assumed, biotinylated in the assay of Table 21); experiment: SPR, biotin-CD16A on SA chip, 25C, pH 6.0
T1 construct: also called CD16A (V158/V176)
Protocol: (§1) Binding to human and cynomolgus CD16A was assessed using biotinylated CD16A captured on a streptavidin (SA) sensor chip (Cytiva, #BR100531). AB0411, AB0466, or AB0621 was titrated from 1500 nM at 25° C. at 30 μL/min for 150 sec association followed by 300 sec dissociation. The surface of the chip was regenerated with 2 mM sodium hydroxide for 5 sec at 30 μL/min. Running buffer was HBS-EP+. […] The V158 isoform bound ˜2- to 3-fold tighter than the F158 isoform as expected.

Cyno FcγRIIIA [2] = target: T2, Cyno FcγRIIIA (cynomolgus monkey, UniProt Q8SPW2 17-208, limits assumed, biotinylated); experiment: SPR, biotin-CD16A on SA chip, 25C, pH 6.0
T2 construct: also called cynomolgus CD16A
Protocol: as §1

CEACAM5 Nterm IgV-His = target: T3, CEACAM5 Nterm IgV-His (human, UniProt P06731 35-144); experiment: SPR, hFc capt, 37C
T3 construct: also called N-term domain of hCEACAM5
T3 sequence: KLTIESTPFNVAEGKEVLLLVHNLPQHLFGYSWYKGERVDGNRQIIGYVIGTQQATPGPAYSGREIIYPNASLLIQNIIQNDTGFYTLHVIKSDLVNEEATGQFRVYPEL
Protocol: (§2) The various hCEACAM5 protein domains were titrated over the captured antibody at 50 μL/min for 180 sec of association and 300 sec of dissociation. The assay was run at 37° C. in HBS-EP+ running buffer, pH 7.4. The surface of the CM5 chip was regenerated using 3M MgCl₂.

CEACAM5 N-A1-B1-His = target: T4, CEACAM5 N-A1-B1-His (human, UniProt P06731 35-322, limits assumed); experiment: SPR, hFc capt, 37C
T4 sequence: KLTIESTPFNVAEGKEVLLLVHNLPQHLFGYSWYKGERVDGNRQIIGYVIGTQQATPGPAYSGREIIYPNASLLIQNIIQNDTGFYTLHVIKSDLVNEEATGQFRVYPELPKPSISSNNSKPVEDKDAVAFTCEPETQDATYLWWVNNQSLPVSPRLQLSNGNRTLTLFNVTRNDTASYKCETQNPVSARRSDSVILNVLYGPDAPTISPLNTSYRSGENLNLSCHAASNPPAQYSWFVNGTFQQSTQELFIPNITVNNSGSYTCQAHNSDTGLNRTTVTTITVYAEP
Protocol: as §2

Human CEACAM5 (E398) = target: T5, Human CEACAM5 (E398) (human, UniProt P06731 35-685, limits assumed); experiment: SPR, anti-hFc capture, 37C, pH 7.4
T5 construct: also called hCEACAM5
T5 sequence: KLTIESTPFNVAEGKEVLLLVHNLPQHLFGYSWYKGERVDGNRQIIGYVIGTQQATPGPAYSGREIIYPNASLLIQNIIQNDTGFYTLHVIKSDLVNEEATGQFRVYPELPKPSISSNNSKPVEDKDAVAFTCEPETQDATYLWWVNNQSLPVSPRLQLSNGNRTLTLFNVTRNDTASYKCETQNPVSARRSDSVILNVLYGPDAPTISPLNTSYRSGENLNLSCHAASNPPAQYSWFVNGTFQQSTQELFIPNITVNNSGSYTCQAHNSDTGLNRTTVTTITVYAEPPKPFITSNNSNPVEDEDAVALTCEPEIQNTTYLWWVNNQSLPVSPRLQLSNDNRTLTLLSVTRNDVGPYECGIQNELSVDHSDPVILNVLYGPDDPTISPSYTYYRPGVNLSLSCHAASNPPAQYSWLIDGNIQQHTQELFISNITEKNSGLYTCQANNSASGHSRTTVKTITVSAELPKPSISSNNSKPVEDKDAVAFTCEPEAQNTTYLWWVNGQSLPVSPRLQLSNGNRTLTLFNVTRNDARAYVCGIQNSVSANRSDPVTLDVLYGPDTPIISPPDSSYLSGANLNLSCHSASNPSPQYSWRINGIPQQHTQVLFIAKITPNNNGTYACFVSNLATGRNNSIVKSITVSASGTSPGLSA
Protocol: To determine the affinity and cross-reactivity of CEACAM5 TriNKET molecules, AB0411, AB0466, or AB0621 TriNKETs were captured using an anti-human Fc capture antibody (Cytiva, #BR100839) immobilized onto a Biacore CM5 standard surface sensor chip following manufacturer instructions. Human or cynomolgus CEACAM5 were titrated over captured AB0411, AB0466, and AB0621 as 2-fold serial dilutions starting from 300 nM. Association was monitored for 300 sec and dissociation was monitored for 600 sec. The assay was run at 37° C. at pH 7.4 and 6.0. The surface of the CM5 chip was regenerated with 10 mM glycine pH 1.5 for 20 sec at 100 μL/min.

[3] = target: T1, human CD16A (FcγRIIIA) V158; experiment: SPR, biotin-CD16A on SA chip, 25C, pH 7.4
Protocol: as §1

[4] = target: human CD16A (FcγRIIIA) F158 (human, UniProt P08637 17-208, limits assumed, biotinylated); experiment: SPR, biotin-CD16A on SA chip, 25C, pH 7.4
Protocol: as §1

Cyno FcγRIIIA [5] = target: T2, Cyno FcγRIIIA; experiment: SPR, biotin-CD16A on SA chip, 25C, pH 7.4
Protocol: as §1

T1 sequence (P08637 17-208 F176V limits assumed): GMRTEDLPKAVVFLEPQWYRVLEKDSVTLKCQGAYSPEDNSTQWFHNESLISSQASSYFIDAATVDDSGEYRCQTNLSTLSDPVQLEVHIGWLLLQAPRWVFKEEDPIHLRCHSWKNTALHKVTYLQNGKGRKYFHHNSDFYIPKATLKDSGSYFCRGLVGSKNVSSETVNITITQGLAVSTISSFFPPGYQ
T2 sequence (Q8SPW2 17-208 limits assumed): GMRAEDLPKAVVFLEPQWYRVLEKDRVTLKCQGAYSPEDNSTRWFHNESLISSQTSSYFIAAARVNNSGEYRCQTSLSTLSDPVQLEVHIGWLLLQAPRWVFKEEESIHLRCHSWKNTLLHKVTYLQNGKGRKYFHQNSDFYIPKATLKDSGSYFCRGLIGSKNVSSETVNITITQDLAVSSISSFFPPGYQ
Chain of human CD16A (FcγRIIIA) F158 (P08637 17-208 limits assumed): as the sequence (P08637 17-208 F176V limits assumed) above, with V160F counted along it

Kd [1]: 47 nM | koff [1]: 0.038 s⁻¹ | kon [1]: 820000 M⁻¹ s⁻¹ | Kd (Cyno FcγRIIIA [2]): 19 nM | koff (Cyno FcγRIIIA [2]): 0.047 s⁻¹ | kon (Cyno FcγRIIIA [2]): 2.4e+06 M⁻¹ s⁻¹ | Kd (CEACAM5 Nterm IgV-His): 1.4 nM | kon (CEACAM5 Nterm IgV-His): 1.1e+06 M⁻¹ s⁻¹ | Kd (CEACAM5 N-A1-B1-His): 5.5 nM | kon (CEACAM5 N-A1-B1-His): 240000 M⁻¹ s⁻¹ | Kd (Human CEACAM5 (E398)): 7.2 nM | kon (Human CEACAM5 (E398)): 190000 M⁻¹ s⁻¹ | Kd [3]: 260 nM | koff [3]: 0.078 s⁻¹ | kon [3]: 300000 M⁻¹ s⁻¹ | Kd [4]: 690 nM | koff [4]: 0.21 s⁻¹ | kon [4]: 310000 M⁻¹ s⁻¹ | Kd (Cyno FcγRIIIA [5]): 140 nM | koff (Cyno FcγRIIIA [5]): 0.11 s⁻¹ | kon (Cyno FcγRIIIA [5]): 790000 M⁻¹ s⁻¹
B1: AB0466 F3' CEACAM5 TriNKET (bispecific antibody, human IgG1, kappa)
chain: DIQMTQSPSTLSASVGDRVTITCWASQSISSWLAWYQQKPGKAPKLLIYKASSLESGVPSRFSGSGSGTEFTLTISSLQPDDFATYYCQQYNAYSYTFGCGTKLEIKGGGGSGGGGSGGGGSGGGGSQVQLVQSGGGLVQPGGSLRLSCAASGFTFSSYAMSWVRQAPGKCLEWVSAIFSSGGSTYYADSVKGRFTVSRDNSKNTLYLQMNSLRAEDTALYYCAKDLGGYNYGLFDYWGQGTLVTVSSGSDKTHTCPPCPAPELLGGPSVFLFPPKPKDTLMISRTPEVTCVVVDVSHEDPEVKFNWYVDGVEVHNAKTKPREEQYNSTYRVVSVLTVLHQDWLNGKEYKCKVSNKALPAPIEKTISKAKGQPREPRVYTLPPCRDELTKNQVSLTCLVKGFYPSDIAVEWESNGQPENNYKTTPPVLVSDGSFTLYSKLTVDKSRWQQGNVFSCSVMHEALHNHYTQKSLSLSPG
heavy: EVQLVESGGGLVKPGGSLRLSCAASGFTFSSYSMNWVRQAPGKGLEWVSSISSSSSYIYYADSVKGRFTISRDNAKNSLYLQMNSLRAEDTAVYYCARGAPIGAAAGWFDPWGQGTLVTVSSASTKGPSVFPLAPSSKSTSGGTAALGCLVKDYFPEPVTVSWNSGALTSGVHTFPAVLQSSGLYSLSSVVTVPSSSLGTQTYICNVNHKPSNTKVDKKVEPKSCDKTHTCPPCPAPELLGGPSVFLFPPKPKDTLMISRTPEVTCVVVDVSHEDPEVKFNWYVDGVEVHNAKTKPREEQYNSTYRVVSVLTVLHQDWLNGKEYKCKVSNKALPAPIEKTISKAKGQPREPQVCTLPPSRDELTENQVSLTCLVKGFYPSDIAVEWESNGQPENNYKTTPPVLDSDGSFFLYSWLTVDKSRWQQGNVFSCSVMHEALHNHYTQKSLSLSPG
light: DIQMTQSPSSVSASVGDRVTITCRASQGISSWLAWYQQKPGKAPKLLIYAASSLQSGVPSRFSGSGSGTDFTLTISSLQPEDFATYYCQQGVSFPRTFGGGTKVEIKRTVAAPSVFIFPPSDEQLKSGTASVVCLLNNFYPREAKVQWKVDNALQSGNSQESVTEQDSKDSTYSLSSTLTLSKADYEKHKVYACEVTHQGLSSPVTKSFNRGEC

Kd [1]: 36 nM | koff [1]: 0.029 s⁻¹ | kon [1]: 830000 M⁻¹ s⁻¹ | Kd (Cyno FcγRIIIA [2]): 16 nM | Kd (CEACAM5 Nterm IgV-His): 0.31 nM | kon (CEACAM5 Nterm IgV-His): 1.4e+06 M⁻¹ s⁻¹ | Kd (CEACAM5 N-A1-B1-His): 1.2 nM | kon (CEACAM5 N-A1-B1-His): 360000 M⁻¹ s⁻¹ | Kd (Human CEACAM5 (E398)): 1.7 nM | kon (Human CEACAM5 (E398)): 270000 M⁻¹ s⁻¹ | Kd [3]: 120 nM | koff [3]: 0.029 s⁻¹ | kon [3]: 230000 M⁻¹ s⁻¹ | Kd [4]: 370 nM | koff [4]: 0.086 s⁻¹ | kon [4]: 220000 M⁻¹ s⁻¹ | Kd (Cyno FcγRIIIA [5]): 100 nM | koff (Cyno FcγRIIIA [5]): 0.075 s⁻¹ | kon (Cyno FcγRIIIA [5]): 730000 M⁻¹ s⁻¹
B2: AB0411 F3' CEACAM5 TriNKET (bispecific antibody, human IgG1, kappa)
chain: DIQLTQSPATLSVSPGERATLSCRASQSVSSSYLAWYQQKPGQAPRLLIYGASSRATGIPDRFSGSGSGTDFTLTISRLEPEDFAVYYCQQYNNWPLTFGCGTKVEIKGGGGSGGGGSGGGGSGGGGSQVQLVQSGGGLVQPGGSLRLSCAASGFTFTSYAMSWVRQAPGKCLEWVSAISGTGDSTFYADSVKGRFTFSRDNSKNTLYLQMNSLRAEDTAVYYCAKDLGWLQYGLFDYWGQGTLVTVSSGSDKTHTCPPCPAPELLGGPSVFLFPPKPKDTLMISRTPEVTCVVVDVSHEDPEVKFNWYVDGVEVHNAKTKPREEQYNSTYRVVSVLTVLHQDWLNGKEYKCKVSNKALPAPIEKTISKAKGQPREPRVYTLPPCRDELTKNQVSLTCLVKGFYPSDIAVEWESNGQPENNYKTTPPVLVSDGSFTLYSKLTVDKSRWQQGNVFSCSVMHEALHNHYTQKSLSLSPG
heavy: B1 heavy
light: B1 light

Kd [1]: 58 nM | koff [1]: 0.04 s⁻¹ | kon [1]: 690000 M⁻¹ s⁻¹ | Kd (Cyno FcγRIIIA [2]): 25 nM | binding result (CEACAM5 Nterm IgV-His): no binding | Kd (CEACAM5 N-A1-B1-His): 11 nM | kon (CEACAM5 N-A1-B1-His): 150000 M⁻¹ s⁻¹ | Kd (Human CEACAM5 (E398)): 17 nM | kon (Human CEACAM5 (E398)): 100000 M⁻¹ s⁻¹ | Kd [3]: 280 nM | koff [3]: 0.072 s⁻¹ | kon [3]: 260000 M⁻¹ s⁻¹ | Kd [4]: 640 nM | koff [4]: 0.19 s⁻¹ | kon [4]: 300000 M⁻¹ s⁻¹ | Kd (Cyno FcγRIIIA [5]): 160 nM | koff (Cyno FcγRIIIA [5]): 0.11 s⁻¹ | kon (Cyno FcγRIIIA [5]): 720000 M⁻¹ s⁻¹
B3: AB0621 F3' CEACAM5 TriNKET (bispecific antibody, human IgG1, kappa)
chain: DIVMTQSPDSLAVSLGERATINCKSSHSLLYGNFQNNYLAWYQQKPGQPPKLLIYWASTRESGVPDRFSGSGSGTDFTLTISSLQAEDVAVYYCQQYYSYPYTFGCGTKLEIKGGGGSGGGGSGGGGSGGGGSQVQLVQSGAEVKKPGASVKVSCKASGYTFTAYTIHWVRQAPGQCLEWMGYINPSSGYTEYNQKFKDRTTLTADTSISTAYMELSRLRSDDTAVYYCTREGGLLWFDYWGQGTLVTVSSGSDKTHTCPPCPAPELLGGPSVFLFPPKPKDTLMISRTPEVTCVVVDVSHEDPEVKFNWYVDGVEVHNAKTKPREEQYNSTYRVVSVLTVLHQDWLNGKEYKCKVSNKALPAPIEKTISKAKGQPREPRVYTLPPCRDELTKNQVSLTCLVKGFYPSDIAVEWESNGQPENNYKTTPPVLVSDGSFTLYSKLTVDKSRWQQGNVFSCSVMHEALHNHYTQKSLSLSPG
heavy: B1 heavy
light: B1 light
